This passage reports hCG production and HCG production results from patent US20220154138A1, “METHOD OF PRODUCING PLACENTA-LIKE ORGANOID, PLACENTA-LIKE ORGANOID, AND PRODUCTION OR TEST KIT” (FUJIFILM Corporation, priority 2020, published 2022).

The test relates to iPS cells. Description: Three-dimensional suspension (spinner flask) culture of iPS cells with BMP4, hCG by GONASTICK W. Type of test: cell-based, human. As to conditions: for hCG production: Example 1, spinner flask. How it is done:
In GONASTICK W, about 0.5 to 1 mL of the culture supernatant was sampled, and a test strip was soaked therein. After the soaking was completed, the determination surface of the test strip was placed to face upward and allowed to stand until the culture supernatant passed through the determination window and reached the reaction end window. […] The detection sensitivity of the present examination reagent is 25 IU/L, and a blue control line corresponding to an hCG concentration of 1,000 IU/L is printed in advance on the determination window, which can be visually compared with the determination line.
In a case where a line equal to or more blue-colored than the control line was visually observed on the determination line, it was judged as positive (+).
In a case where the line was not visually observed on the determination line, it was determined to be negative (−).
In a case where a line that was less blue-colored than the control line but was visible was visually observed on the determination line, it was determined to be (+/−).
30 mL of an iPS cell medium (StemFit (registered trade name) AK02N: Ajinomoto Co., Inc.) was dispensed into a 30 mL volume spinner flask (ABLE Corporation), and then iPS cells (1.6×10^7 cells/mL) were seeded. BMP4 was not added at the start of culture, but 30 μL of a solution containing 50 μg/mL BMP4 (R&D Systems Inc.) was added on the 4th day of culture so that the final concentration of BMP4 in the medium was to be 50 ng/mL. In a case where BMP4 was added to Example 2 and subsequent Examples, the same concentration was used. After the start of culture, the addition of BMP4 was continued until the 18th day of culture while exchanging half of the medium every 3 to 4 days, and thereafter, only the medium was exchanged without adding BMP4. Cell aggregates (spheroids) were formed by the 4th day of culture (FIG. 1). The stirring culture was continued in a spinner flask throughout the culture period. Although the hCG production was not confirmed until the 11th day of culture, the hCG production was confirmed after the 15th day of culture, and it was confirmed that the hCG production was continued even after the 60th day of culture (Table 2).
30 mL of an iPS cell medium (StemFit (registered trade name) AK02N: Ajinomoto Co., Inc.) was dispensed into a 30 mL volume spinner flask (ABLE Corporation), and then iPS cells (1.1×10^7 cells/bottle) were seeded. The comparison was carried out between the level 1 in which BMP4 was not added at the start of culture but added on the 4th day of culture and the level 2 in which BMVP was added from the start of culture. BMP4 was added so that the concentration in the medium was 50 ng/mL in both the level 1 and the level 2. After the start of culture, half of the medium was exchanged every 3 to 4 days, and after the 18th day of culture, the medium was exchanged for both the level 1 and the level 2 with a medium to which BMP4 had not been added. By the 4th day of culture, cell aggregates (spheroids) were formed. Regarding the level 1 and the level 2, stirring culture was continued in a spinner flask from the initial stage of culture, and the hCG production was checked. In a case where BMP4 is added from the start of culture (the level 2), the hCG production is started earlier; however, the hCG production also stops earlier. On the other hand, in a case where BMP4 is added after the 4th day of culture (the level 1), the hCG production is slightly delayed; however, it continued for a long time.

B1: BMP4: bone morphogenetic protein BMP4 (R&D Systems Inc.), added to iPS cell medium at 50 ng/mL to induce differentiation (protein, UniProt P12644 293-408, looked up)
Bone morphogenetic protein 4: SPKHHSQRARKKNKNCRRHSLYVDFSDVGWNDWIVAPPGYQAFYCHGDCPFPLADHLNSTNHAIVQTLVNSVNSSIPKACCVPTELSAISMLYLDEYDKVVLKNYQEMVVEGCGCR
For B1, the hCG production result by setting is: (BMP4 50 ng/mL day 4 to 18, day 15) “+ (a line equal to or more blue-colored than the control line was visually observed on the determination line, it was judged as positive (+))”; (BMP4 50 ng/mL day 4 to 18, day 39) “+ (a line equal to or more blue-colored than the control line was visually observed on the determination line, it was judged as positive (+))”; (BMP4 50 ng/mL day 4 to 18, day 53) “+ (a line equal to or more blue-colored than the control line was visually observed on the determination line, it was judged as positive (+))”; (BMP4 50 ng/mL day 4 to 18, day 67) “+ (a line equal to or more blue-colored than the control line was visually observed on the determination line, it was judged as positive (+))”. Moreover, the HCG production entry (level 1: BMP4 50 ng/mL added from day 4, spinner flask, day 8) is given as “− (the line was not visually observed on the determination line, it was determined to be negative (−))”; the HCG production entry (level 1: BMP4 added from day 4, day 11) is reported as “− (the line was not visually observed on the determination line, it was determined to be negative (−))”; the HCG production result (level 1: BMP4 added from day 4, day 14) was “+/− (a line that was less blue-colored than the control line but was visible was visually observed on the determination line, it was determined to be (+/−))”; the HCG production entry (level 1: BMP4 added from day 4, day 18) is “+ (a line equal to or more blue-colored than the control line was visually observed on the determination line, it was judged as positive (+))”; the HCG production result (level 1: BMP4 added from day 4, day 21) is “+ (a line equal to or more blue-colored than the control line was visually observed on the determination line, it was judged as positive (+))”; the HCG production result (level 1: BMP4 added from day 4, day 25) was “+ (a line equal to or more blue-colored than the control line was visually observed on the determination line, it was judged as positive (+))”. Further, the HCG production entry was “+ (a line equal to or more blue-colored than the control line was visually observed on the determination line, it was judged as positive (+))” (level 1: BMP4 added from day 4, day 28); “+ (a line equal to or more blue-colored than the control line was visually observed on the determination line, it was judged as positive (+))” (level 1: BMP4 added from day 4, day 32); “+ (a line equal to or more blue-colored than the control line was visually observed on the determination line, it was judged as positive (+))” (level 2: BMP4 50 ng/mL added from start of culture, spinner flask, day 8); “+ (a line equal to or more blue-colored than the control line was visually observed on the determination line, it was judged as positive (+))” (level 2: BMP4 added from start of culture, day 11); “+ (a line equal to or more blue-colored than the control line was visually observed on the determination line, it was judged as positive (+))” (level 2: BMP4 added from start of culture, day 14); “+ (a line equal to or more blue-colored than the control line was visually observed on the determination line, it was judged as positive (+))” (level 2: BMP4 added from start of culture, day 18). In addition, the HCG production result was “+ (a line equal to or more blue-colored than the control line was visually observed on the determination line, it was judged as positive (+))” (level 2: BMP4 added from start of culture, day 21); “+/− (a line that was less blue-colored than the control line but was visible was visually observed on the determination line, it was determined to be (+/−))” (level 2: BMP4 added from start of culture, day 25); “− (the line was not visually observed on the determination line, it was determined to be negative (−))” (level 2: BMP4 added from start of culture, day 28); “− (the line was not visually observed on the determination line, it was determined to be negative (−))” (level 2: BMP4 added from start of culture, day 32).
